From publication PMC5923241, “The ng_ζ1 toxin of the gonococcal epsilon/zeta toxin/antitoxin system drains precursors for cell wall synthesis” (Nature Communications, 2018)

Biological target: T1, ngζ_1 toxin (zeta_1) of Neisseria gonorrhoeae, wild type (Neisseria gonorrhoeae, UniProt D5K9G7)
T1 sequence: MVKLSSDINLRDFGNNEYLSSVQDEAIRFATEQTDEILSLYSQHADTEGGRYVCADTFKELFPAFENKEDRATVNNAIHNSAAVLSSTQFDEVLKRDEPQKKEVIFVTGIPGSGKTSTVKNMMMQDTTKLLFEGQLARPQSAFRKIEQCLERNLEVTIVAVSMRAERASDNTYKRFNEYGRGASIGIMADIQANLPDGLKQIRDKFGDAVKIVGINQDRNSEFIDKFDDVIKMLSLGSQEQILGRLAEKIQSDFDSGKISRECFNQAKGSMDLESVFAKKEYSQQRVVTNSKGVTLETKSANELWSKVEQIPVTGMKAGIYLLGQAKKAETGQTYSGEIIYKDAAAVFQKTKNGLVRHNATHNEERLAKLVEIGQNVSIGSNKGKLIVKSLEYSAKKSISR
Test: crystal structure
Settings: both partners purified

B1: ngε_1 antitoxin (epsilon_1) of Neisseria gonorrhoeae (natural protein)
chain: MNKVEPQESNAIRMIKEACEKNRRMMTDEAFRKEVEKRLYAGPSPELLAKLRVLWAANKEQ
notes: also called ng_ɛ1; source: E. coli BL21(DE3)-RIL, purified as ngε_1/ngζ_1 complex (Ni-NTA, standard chromatographic procedures)
Question: Does B1 bind?
Answer: Result: binds
